Measurements taken from a protein production outcome set (Wang et al. 2014).

assay: label from the status in PepcDB records

Row | Sequence | protein production
1 | MHAQTKDLTPIKGIRYYYPPDDAVLVFKDEKERIHYGGMPVPLLEDDFARLDGEPSYDEVGRGVYQALRSNPDCILCDKYAALLRDAYPHYLAELASNAIMIDSKDVEVPYLDRKIACLKVLALLEPQNPALPLEIGRVFLDRGMRLSALHLSTVSIYRAEHFLNRAHTLAPDDRNINRYLGEAYYLLGKYDEAVGFWRKATTTDEPEAERLRERIERISAGNVPLIPPVDYLEAIGAAFACNQTGEYEESIAILQDILMDPVFSEEFPIPEIHCVIGKGFTALDMPKYAEAEFRQALVMDPAHEEARALLATIAAA | failed
2 | MHATDQTFQILLSQLLEKVEDRCPECGSEQYVWQQKNKDGTERCAPTCWSCGYKMLKKHEQQANQQRSQESFMARTQKFFHQGSLIADDALRQCRLTNYQTTELETRQAKERALAAVSAIVEGKPIHVIFSGKPGVGKSHLAISILVEVLERSAYQKYCLFVSYSELLEKLKMSMNESAKSQAKAQAYITRMKKADVLVLDDLGAELGIKNKVSTDFNNDILNRILEARQNKATIFTTNFSGKQLVEAYGTRIISRLMKHANGYVFQYKDTTDKRMRSVKLEHHHHHH | failed
3 | MHDALRAYIEKYASEKISDADFEEVKKAFTFKRYKKGQFLLQEGEVSKYTAFVLKGSMRQYSVDAKGTEHIIHFGIENWWVGDRESSTMLTPSNYNIDAIEDTEVLLTTSEDLQQLTAALPVIGKMVNTMNQRNFIASQKRIHDALSLTAEERYLELLKNHPDFLQRFPQTMLASYLGITAETYSRIRKKALK | not failed
4 | MHDGSVFYTIFLIFAGAAFFSTLVLYTKQSLLVAYITLGAILGPWGFKLVSDVTVVKQIGDIGIVFLLFLLGLHLQPQNLIHMLRKVTWIAIVSSILFAALAYGIGRWFGLTVTESLILGGAMMFSSTIIGLKLLPTTILHHQHTGEVMISVLLMQDVIAIVLLILLNSAHQDGNLSISDFILVIIALPALCLFSFLFERYILIKLLARFDRTQEYVFLLSIGWCLGISVLAQTIGLSEDIGAFIAGVALASSPISLFIAESLKPLRDFFLVMFFFSIGATFNFGFGAQVVIPAVILATLILIIKPLLFYILLARSGEKKQVAKEVGIRLGQGSEFSLLVASIALSTNLISEVASNLIQATTILTFIVSSYLVVLKYPTPIALSEKMRKD | failed
5 | MHDTIPEYIRDGAQDMLAQGGVQKLGLKKEGGTWEIDGSIQSDDFQIYVSRISLTPSEHRASYVCNCSDSFSGVCRHVAATALKMLSTFDTRPGSDEPAKPRVEWRQSFRSFFSTALDPEPGKHYLIFRFHPEPGRLTVAFFRARQNKSGLSTVHNEITLEQIINNPEWCELSPQLVDVAKQVGQFVDYYGHRIEIPDGLVSWFFWAIRREYYLFWLDTESPCRIENTALGLKLHPRLGDDGLSFDVMLYREGKPPFSILGGENAATFHGQMPMWVCWNRSFYPVQTSLPPQLVQDLIRQHPSIPQEDMSEFLDRVWTRLPSSDLYGQEDFLKLMEPVFQPARYSPKLFLDEEGSLLTLEIQNVYETAHGEFYLAGPNPDFQTGSYTFEGTTFLIRRHQDEEAGLITQLSEMRFQPRSSRLWFLEPEEAIAFLLDAYPRLVEKYRVYGEKALSRYKVRLSQPVITAKVESNEEEKWFSLDIDVEYDGQKVPIDKIWKAWSQGKRYVQLKDGSYTSLPETWLERLGHKLQALGLDPDKPPQKQFKQFEAPVLDSLLDDLPGAETDSFWNSLRDKIRTFREIRAVNAPRGLNATLRGYQMQGLAYLNFLREYGFGGILADEMGLGKTVQTLSFVQHMVESGKIGPNLIVVPTSVLPNWEREAQKFVPELKRLIIYGTRREGMFKLIDESDLVVTTYALLRRDLEELQNHTFNCIILDEAQNIKNPNTITARSVRRIKADMRLCLSGTPIENNLFELWSLFEFLMPGFLGSQHAFQRGVIKPIKDGDCETLDYLRTRVRPFILRRTKSEVAKDLPPKIENTYYCALAEEQAELYTALARKLKEQVLADVDEKGLAKSQMSILDALLKLRQICCHPRLLKLDMPGFSTNLPSGKFDAFKDMITDIVEEGHKVLVFSQFVQMLHIIRSWLQISGTPFCYLDGTSKDRFEQVDKFNNSPDIPIFLISLKAGGTGLNLTSADYVIHYDPWWNPAVESQATDRTHRIGQTRQVFSYKLICQNTVEEKILKLQDMKRGVAEAIIPGQETWKSLTREDLEMLFDI | failed
6 | MHEFLKAFKDAFPHTISILLGYLLMGMTFGMLLVQQGYDYKVALFMSLFIYAGAVQFVAITLLSAQASLMNVVIVSLLVNARQTCYALSMLDRFKNTKWRLPYLAHALTDETFALLNLYAPKEGVSEKDFIFSISLLNHSYWIFGSLVGSLVGSHFSFDTQGMEFVMTAIFIVLFMEQYKRTTNHKNAWLGIVIAVVCLALFGTEYFLLIALVLMVLALMLFRKQLEC | failed
7 | MHFHLRNLRLHMETNGTPQSPAGDWRSYERMLLPPIQDLHKLGVYEEHGGYDRLRRVLEDDAFEPSDVTDEVKASGLTGRGGAGFPTGIKWTFMPEPDERPRFIGVNADESEPGTFKDRQVMEYNPHLMLEGILLAGYALHIDTAYVYIRGEYTDWIVHLKEQLENAYEAGYVGENIMGSDFTMDIVLHKGAGAYICGEETSLMESLEGKRGYPRYKPPFPAQSGIFGSPTTINNAETLAHVPLIVEQGGEAYSNIGAGDMPGPALYGMSGHVKNPGVYEFPTGMLLTDMIYDVCGGMARDKDLKAVVPGGSSVPPVPADQIDGISMNDESLGEVGSRTGTFCPLVLDEETDMVSFLRRVAHFYQDETCGQCTPCREGTSWLEKILARIDEGEGRMRDIDLLLELCDNMDGGRTICAFADGAVGPVRATVKRFREEFAAKCQASVHPVSTEVSAGAGSAVAATE | failed
8 | MHFRDTSERQSDAVNESSLDSVHLQMIKGMLYQQRQDFSSQDSVSRKKVLSLNLKQTSKTEEIKNVLGGSTCYNYSVKDLQEISGSELCFPSGQKIKSAYLPQRQIHIPAVFQSPAHYKQTFTSCLIEHLNILLFGLAQNLQKALSKVDISFYTSLKGEKLKNAENNVPSCHHSQPAKLVMVKKEGPNKGRLFYTCDGPKADRCKFFKWLEDVTPGYSTQEGARPGMVLSDIKSIGLYLRSQKIPLYEECQLLVRKGFDFQRKQYGKLKKFTTVNPEFYNEPKTKLYLKLSRKERSSAYSKNDLWVVSKTLDFELDTFIACSAFFGPSSINEIEILPLKGYFPSNWPTNMVVHALLVCNASTELTTLKNIQDYFNPATLPLTQYLLTTSSPTIVSNKRVSKRKFIPPAFTNVSTKFELLSLGATLKLASELIQVHKLNKDQATALIQIAQMMASHESIEEVKELQTHTFPITIIHGVFGAGKSYLLAVVILFFVQLFEKSEAPTIGNARPWKLLISSSTNVAVDRVLLGLLSLGFENFIRVGSVRKIAKPILPYSLHAGSENESEQLKELHALMKEDLTPTERVYVRKSIEQHKLGTNRTLLKQVRVVGVTCAACPFPCMNDLKFPVVVLDECSQITEPASLLPIARFECEKLILVGDPKQLPPTIQGSDAAHENGLEQTLFDRLCLMGHKPILLRTQYRCHPAISAIANDLFYKGALMNGVTEIERSPLLEWLPTLCFYNVKGLEQIERDNSFHNVAEATFTLKLIQSLIASGIAGSMIGVITLYKSQMYKLCHLLSAVDFHHPDIKTVQVSTVDAFQGAEKEIIILSCVRTRQVGFIDSEKRMNVALTRGKRHLLIVGNLACLRKNQLWGRVIQHCEGREDGLQHANQYEPQLNHLLKDYFEKQVEEKQKKKSEKEKSKDKSHS | failed
9 | MHIAIIGDQAATRQATTQLLSQLTTPTQPLQVTAYPTAEAFLFADQPADLLLLDIKLGSGMDGMTLAKQIREHDAATAIAFVSNYDEFVFDGYDVNALDYVIKPITSDKLQHLISKVAAQTQPKLLVFTTANGIQRVAMYDISAIEVTDHRLQVHTQKMTYTVAGQLKEFLPQLDENFIQIYRSIVINLNFLSQLEKNTVVMADGTSYPVSRQQAPLVKQAFFKHFRGLAHDSELEHHHHHH | failed
10 | MHIKSAIIVVSDRISTGTRENKALPLLQRLMSDELQDYSYELISEVVVPEGYDTVVEAIATALKQGARFIITAGGTGIRAKNQTPEATASFIHTRCEGLEQQILIHGSTHTHLAGLSRGIVGVTGRDDHAALIVNAPSSSGGITDTWAVISPVIPNIFEGLDAS | not failed
11 | MHKEIAKELLLLAGGKNNIISISHCTTRLRFDVKDETKIDIHAIENLQGVQGTFFRYGLFQIIFGAGVVNKIYKEVVHVWETAPSEEPVHQKKASRKLNPAAAFAKTLSDI | failed
12 | MHLKNNQTLANGATVTIYPTTTEPTNYVVYLHGGGMIYGTKSDLPEELKELFTSNGYTVLALDYLLAPNTKIDHILRTLTETFQLLNEEIIQNQSFGLCGRSAGGYLMLQLTKQLQTLNLTPQFLVNFYGYTDLEFIKEPRKLLKQAISAKEIAAIDQTKPVWDDPFLSRYLLYHYSIQQALLPHFYGLPENGDWSAYALSDETLKTFPPCFSTASSSDEEVPFRYSKKIGRTIPESTFKAVYYLEHDFLKQTKDPSVITLFEQLDSWLKER | not failed
13 | MHLLQAVSYRYLILAVIGLPEKYRKPQALACHHRRTAMNRLSAFALAAAIGIAAAPVAQAGELWRATGLEQPESALFDAANNRIIVSNIVGNPGEADGNGYLSVLSLDGKTITQHWTDGMDAPKGMAISGGKLYVADITKVRVVDLASGKLIASIVVPNAVFLNDMTSDHTGKVYVSDMLADTIYRIDGDRPELFVRDALLASPNGVFADGDRLIVASWGKGIKPDFSTAEPGGLLAVDLASKAVSPLPGAQKFADLDGVIAIGDTIYATAYMTGTLYRYKAGGAPEAVAHFKPGSADIGTDGKSILYVPLMNEGEVAALKLD | failed
14 | MHLQKLKNIVWTKRIGHLFERVTDIENIKRAIKRAAKRKTHRPSVQRILNDIDSYARKIQEMLVNETFVPAKYTIREIYDGIKKKKRVIAVPRFYPDQCIHHAFVQVFREIVEHGADKFSCGCVPGKGTDGARKMIKHWIKSDPIGTSKVLKLDVHHCYPTMNHEALRQKLEKKIKDRKLLNLAFKLIASYQQPMADHTRMLPEVDAVGIPVGLYTSPWFCNFFFQDIDHMIAEKTGAKHHTRYVDDIVLFDSNKRRLHKALRMIADELRKVKMQVKANWQVFPLKDRPLDFLGYKFHAGAWTTLRKSIMFRISHKAKKISKISYISPTNASGMISYMGFIYNSDSWNFWKERVKPFINLKLLKGVVSNENRKQHQAACAA | failed
15 | MHLRDRPGFGPGGPFRFRALPRAADKGTMMFKKILIANRGEIACRVIKTARKMGIQTVAVYSDADRNALHVSMADEAIHIGPPPANQSYIVIDKIMEAIKASGAEAVHPGYGFLSERMDFAAALEAAGVVFIGPPSGAIEAMGDKITSKKLAKEAGVSTVPGYMGLIADADEAVKISNEIGYPVMIKASAGGGGKGMRIAWSEAEVKEGFESSKNEAANSFGDDRIFIEKFVTQPRHIEIQVLADKHGNCVYLHERECSIQRRNQKVIEEAPSPFLDEATRKAMGEQACALAKAVGYASAGTVEFIVDGQKNFYFLEMNTRLQVEHPVTELITGIDLVEQMIRVAAGEKLPFQQSDLKINGWAMESRLYAEDPYRNFLPSIGRLTRYRPPVESVTPTSVVRNDTGVYEGGEISMYYDPMIAKLCTWAPTREAAIEEMRLALDTFEVEGIGHNLPFVGAVMDHPRFVKGDITTAFIAEEYPDGFQGAVLDEPTLRRVAAAAAAMNRVAEIRRTRISGTMNNHERHVGVDWVVALQGESYHVSIAADREGSTVSFSDGSSLRVTSDWTPGQPLASLMVDGRPLVMKVGKIPMGFRLRLRGADLKVNVRTPRQAELALLMPEKLPPDTSKYLLCPMPGLVVKINVAEGDEVQEGQALATVEAMKMENILRAERRGTVKKIAAAPGASLRVDDVIMEFE | failed
